Assays:
Thrombin a = test: cell-based or functional assay
Hepsin = test: cell-based or functional assay

DX-2930 (antibody), sequence (VH): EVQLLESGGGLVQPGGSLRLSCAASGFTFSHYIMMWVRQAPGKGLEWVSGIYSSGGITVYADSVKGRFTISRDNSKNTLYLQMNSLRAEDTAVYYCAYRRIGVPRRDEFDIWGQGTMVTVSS
DX-2930 (antibody), sequence (VL): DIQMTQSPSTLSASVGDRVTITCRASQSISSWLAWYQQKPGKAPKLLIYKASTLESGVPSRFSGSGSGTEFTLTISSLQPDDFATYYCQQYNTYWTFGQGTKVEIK

IC50, protease inhibition assay, fluorescent peptide substrate, Duplicate 1 (Thrombin a): > 1000 nM | IC50, protease inhibition assay, fluorescent peptide substrate, Duplicate 2 (Thrombin a): > 1000 nM | IC50, protease inhibition assay, fluorescent peptide substrate, Duplicate 1 (Hepsin): > 1000 nM | IC50, protease inhibition assay, fluorescent peptide substrate, Duplicate 2 (Hepsin): > 1000 nM
Substance: DX-2930 (antibody)

— patent US20240218079A1, “PLASMA KALLIKREIN ANTIBODIES AND USES THEREOF” (Astria Therapeutics, Inc., priority 2021, published 2024)
